Results published in patent US20240116985A1 (published 2024).
Values belong to the binder of their own block, whether it stands above or below them. Starred links: 1 amine or outer side, 2 acyl side, 3 side chain; linkers in the order of their positions; H or OH if unused. Positions of bridges follow the written chain, without caps; N, C: chain ends. Non-standard residues stand in square brackets, D forms with d. Primed or numbered codes have the meaning given here. B5(10) = 2-amino-2-(pent-4-en-1-yl)hept-6-enoic acid, bis(4-pentenyl)glycine, stitching residue bearing both staples, C=CCCCC(CCCC=C)(N[*:1])C(=O)[*:2]; PyrS2″ = (S)-3-amino-1-((pent-4-en-1-yloxy)carbonyl)pyrrolidine-3-carboxylic acid (stapling residue), C=CCCCOC(=O)N1CC[C@@](N[*:1])(C(=O)[*:2])C1; B5(18) = 2,2-bis(4-pentenyl)glycine (2-amino-2-(pent-4-en-1-yl)hept-6-enoic acid), stitching residue, C=CCCCC(CCCC=C)(N[*:1])C(=O)[*:2]; B5(4) = 2,2-bis(4-pentenyl)glycine = 2-amino-2-(pent-4-en-1-yl)hept-6-enoic acid (stitching residue), C=CCCCC(CCCC=C)(N[*:1])C(=O)[*:2]; B5(21) = 2-amino-2-(pent-4-en-1-yl)hept-6-enoic acid, bis(4-pentenyl)glycine (stitching residue), C=CCCCC(CCCC=C)(N[*:1])C(=O)[*:2]; TfeGA = (S)-2-amino-3-((carboxymethyl)(2,2,2-trifluoroethyl)amino)propanoic acid, O=C([C@H](CN(CC(=O)[*:3])CC(F)(F)F)N[*:1])[*:2]; PyrS2 = (S)-3-amino-1-((pent-4-en-1-yloxy)carbonyl)pyrrolidine-3-carboxylic acid, C=CCCCOC(=O)N1CC[C@@](N[*:1])(C(=O)[*:2])C1; SeN = (S)-5-(((allyloxy)carbonyl)(methyl)amino)-2-amino-2-methylpentanoic acid, C=CCOC(=O)N(C)CCC[C@](C)(N[*:1])C(=O)[*:2]; B5(3) = 2,2-bis(4-pentenyl)glycine (stitching residue), C=CCCCC(CCCC=C)(N[*:1])C(=O)[*:2]; S3 = (S)-2-amino-2-methylpent-4-enoic acid, C=CC[C@](C)(N[*:1])C(=O)[*:2]; Phe(2-Cl) = N[C@@H](Cc1ccccc1Cl)C(=O)O; Bta = N[C@@H](Cc1csc2ccccc12)C(=O)O; αAllylPro = C=CC[C@@]1(C(=O)O)CCCN1; tBuAla = CC(C)(C)C[C@H](N)C(=O)O; 3Thi = N[C@@H](Cc1ccsc1)C(=O)O; S8 = C=CCCCCCC[C@](C)(N)C(=O)O; Leu(ol) = CC(C)C[C@H](N)CO; hSer = N[C@@H](CCO)C(=O)O; Aib = CC(C)(N)C(=O)O

Assays:
[1] = molecular target: T1, full-length beta-Catenin (Uniprot ID P35222) (Homo sapiens (Human), UniProt P35222 1-781); experiment: fluorescence polarization competition; full-length beta-catenin + 5FAM-TCF4(10-53) probe
T1 construct: also called bCat; B-Catenin
T1 sequence: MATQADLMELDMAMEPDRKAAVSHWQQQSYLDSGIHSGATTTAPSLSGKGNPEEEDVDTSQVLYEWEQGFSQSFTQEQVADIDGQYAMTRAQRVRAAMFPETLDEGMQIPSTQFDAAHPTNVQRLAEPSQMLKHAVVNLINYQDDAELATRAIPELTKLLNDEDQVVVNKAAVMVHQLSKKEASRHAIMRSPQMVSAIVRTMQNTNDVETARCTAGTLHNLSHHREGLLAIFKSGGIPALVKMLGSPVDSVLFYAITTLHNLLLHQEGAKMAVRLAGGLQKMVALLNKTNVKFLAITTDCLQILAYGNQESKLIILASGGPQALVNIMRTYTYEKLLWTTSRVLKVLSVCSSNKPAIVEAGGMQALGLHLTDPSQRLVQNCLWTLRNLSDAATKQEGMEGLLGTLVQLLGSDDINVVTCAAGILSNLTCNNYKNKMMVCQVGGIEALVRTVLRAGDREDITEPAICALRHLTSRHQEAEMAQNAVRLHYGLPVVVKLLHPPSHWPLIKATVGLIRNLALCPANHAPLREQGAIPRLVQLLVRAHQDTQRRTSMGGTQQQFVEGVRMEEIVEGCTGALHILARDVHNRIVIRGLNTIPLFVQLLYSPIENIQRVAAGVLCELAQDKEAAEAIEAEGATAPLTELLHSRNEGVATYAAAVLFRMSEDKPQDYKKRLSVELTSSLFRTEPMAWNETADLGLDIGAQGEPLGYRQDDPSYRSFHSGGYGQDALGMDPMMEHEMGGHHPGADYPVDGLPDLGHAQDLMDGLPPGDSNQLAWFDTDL
Description: (§1) The plate was incubated protected from light for 60 minutes at 20° C. prior to read. Reads were performed on a CLARIOstar plate reader (BMG Labtech) in duplicate, and data were fitted to a 1:1 binding model with hill slope using an in-house script. All provided concentrations are final concentrations.

[2] = molecular target: T2, beta-catenin in DLD1 TCF/LEF luciferase reporter cells (UniProt P35222 1-781); experiment: cell-based or functional assay
T2 sequence (looked up): T1 sequence

[3] = molecular target: T3, B-cat-Halo (UniProt P35222 1-781); experiment: cell-based or functional assay
T3 sequence (looked up): T1 sequence

[4] = molecular target: T4, full-length beta-Catenin (Uniprot ID P35222) (Homo sapiens (Human), UniProt P35222 1-781); experiment: fluorescence polarization competition; full-length beta-catenin, 5FAM-TCF4(10-53) probe as competitor
T4 construct: The assay protocol says 'full-length'; also called bCat; B-Catenin
T4 sequence: T1 sequence
Description: as §1

[5] = molecular target: T5, B-cat-Halo (UniProt P35222 1-781); experiment: cell-based or functional assay; remark: listed apart in the source
T5 sequence (looked up): T1 sequence

[6] = molecular target: T6, beta-catenin in DLD1 TCF/LEF luciferase reporter cells (UniProt P35222 1-781); experiment: cell-based or functional assay; remark: listed apart in the source
T6 sequence (looked up): T1 sequence

[7] = molecular target: T7, B-cat-Halo (beta-catenin HaloTag NanoBRET construct expressed in HEK293 cells) (UniProt P35222 1-781); experiment: cell-based or functional assay
T7 sequence (looked up): T1 sequence

[8] = molecular target: T8, B-cat-Halo (beta-catenin HaloTag Nano-BRET construct) (UniProt P35222 1-781); experiment: cell-based or functional assay
T8 sequence (looked up): T1 sequence

Binder: Ac-[αAllylPro]D[tBuAla][B5(3)]D[TfeGA]AAF[hSer][S8][Phe(2-Cl)][Bta][hSer]-NH2 (staple 1-4, 4-11) [I-1000]
DLD1 4% Abs IC50 [2]: 1.9 µM
NanoBRET Abs IC50 [3]: 23.9 µM

Binder: Ac-[αAllylPro]D[tBuAla][B5(3)]D[TfeGA]AAFS[S8][Phe(2-Cl)][Bta][hSer]-NH2 (staple 1-4, 4-11; also: later-eluting HPLC isomer) [I-999]
DLD1 4% Abs IC50 [2]: 5.6 µM
NanoBRET Abs IC50 [3]: 26.3 µM

Binder: Ac-[αAllylPro]DA[B5(21)]DDAAFV[S8]FWQ-NH2 (staple 1-4, 4-11, Tested as stapled peptide composition) [I-52: Ac-PL3-Asp-Ala-B5-Asp-Asp-Ala-Ala-Phe-Val-S8-Phe-Trp-Gln-NH2 (stapled peptide)]
IC50 [4]: 3.2 µM

B3: I-64: Ac-Ala-Asp-Ile-RdN-Asp-Asp-Ala-Ala-Phe-Gln-S7-Phe-Trp-His-NH2 (stapled peptide) (peptide)
peptide: ADIXDDAAFQXFWH
modifications: not fully specified; N-terminal acetyl (Ac); C-terminal amide (NH2); RdN at position 4 and S7 at position 11 (non-natural olefin amino acids); stapled by olefin metathesis RdN-S7
notes: Same description as I-65
IC50 [4]: 4.25 µM

Binder: Ac-[αAllylPro]D[tBuAla][B5(3)]D[TfeGA]AAFF[PyrS2″][Phe(2-Cl)][Bta]S-NH2 (staple 1-4, 4-11) [I-990]
NanoBRET Abs IC50 [5]: 8.8 µM

B4: I-54: Ac-PL3-Asp-Ala-B5-Asp-Asp-Ala-Ala-Phe-Val-SeN-Phe-Trp-Gln-NH2 (stapled peptide) (peptide)
peptide: Ac-[αAllylPro]DA[B5(4)]DDAAFV[SeN]FWQ-NH2
modifications: staple 1-4, 4-11; not fully specified; printed as Ac-PL3-Asp-Ala-B5-Asp-Asp-Ala-Ala-Phe-Val-SeN-Phe-Trp-Gln-NH2
notes: Same description as I-53
IC50 [4]: 3.19 µM

The next lines start with the values.

EC50 [1]: 10 µM
B1: I-1287 (peptide)
peptide: Ac-[αAllylPro]NA[B5(10)]DTAAFL[PyrS2]F[Bta]Q-NH2
modifications: staple 1-4, 4-11; not fully specified; printed as Ac-PL3-Asn-Ala-B5-Asp-Thr-Ala-Ala-Phe-Leu-PyrS2-Phe-BztA-Gln-NH2

EC50 [1]: 10 µM
B2: I-1295 (peptide)
peptide: Ac-[αAllylPro]DA[B5(10)]NTAAFL[PyrS2]F[Bta]Q-NH2
modifications: staple 1-4, 4-11; not fully specified; printed as Ac-PL3-Asp-Ala-B5-Asn-Thr-Ala-Ala-Phe-Leu-PyrS2-Phe-BztA-Gln-NH2

DLD1 4% Abs IC50 [2]: 5.7 µM
NanoBRET Abs IC50 [3]: 8.9 µM
Binder: Ac-[αAllylPro]D[tBuAla][B5(18)]DDAAFT[PyrS2″][Phe(2-Cl)][Bta]S-NH2 (staple 1-4, 4-11) [I-1015]

DLD1 reporter assay Abs IC50 [6]: 14.5 µM
NanoBRET Abs IC50 [7]: 19.7 µM
Binder: Ac-[αAllylPro]D[tBuAla][B5(4)]DDAAFN[PyrS2″][Phe(2-Cl)][Bta]Q-NHEt (staple 1-4, 4-11) [I-1079]

NanoBRET Abs IC50 [8]: > 20 µM
Binder: Ac-[αAllylPro]D[tBuAla][S3]DDAAFL[Aib][3Thi][Bta]Q-NH2 (staple 1-4) [I-1980]

DLD1 reporter assay Abs IC50 [6]: 17.2 µM
NanoBRET Abs IC50 [7]: > 20 µM
Binder: Ac-[αAllylPro]D[tBuAla][B5(4)]DDAAFN[PyrS2″][Phe(2-Cl)][Bta][Leu(ol)] (staple 1-4, 4-11) [I-1080]
